The target of assay [1] is T1, Ctr9^(1–313) (S. cerevisiae, UniProt P89105 1-313).
T1 construct: In the crystal it stood as part of the single-chain fusion m36; source: E. coli BL21(DE3) Codon Plus, co-expressed with a Paf1 fragment, purified (Ni-NTA, SEC)
T1 sequence (looked up): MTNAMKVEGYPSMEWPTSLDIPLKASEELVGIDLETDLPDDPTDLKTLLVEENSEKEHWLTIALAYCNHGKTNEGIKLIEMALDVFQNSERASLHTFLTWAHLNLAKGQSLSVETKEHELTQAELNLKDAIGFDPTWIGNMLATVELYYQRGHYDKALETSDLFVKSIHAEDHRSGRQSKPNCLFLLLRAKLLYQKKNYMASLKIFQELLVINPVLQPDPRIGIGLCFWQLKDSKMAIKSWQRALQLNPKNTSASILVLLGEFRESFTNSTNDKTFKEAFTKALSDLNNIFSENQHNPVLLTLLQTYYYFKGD
The experiment in a line: SEC; two fragments co-expressed in E. coli and co-purified; analytical size-exclusion column with SDS-PAGE of the fractions. The conditions noted are these: both partners purified. In general terms: SEC sorts molecules by how far they enter the pores of the column.

For assay [2], the target named is T2, Ctr9^(1–270) (S. cerevisiae, UniProt P89105 1-270).
T2 construct: S. cerevisiae Ctr9, residues 1-270
T2 sequence (looked up): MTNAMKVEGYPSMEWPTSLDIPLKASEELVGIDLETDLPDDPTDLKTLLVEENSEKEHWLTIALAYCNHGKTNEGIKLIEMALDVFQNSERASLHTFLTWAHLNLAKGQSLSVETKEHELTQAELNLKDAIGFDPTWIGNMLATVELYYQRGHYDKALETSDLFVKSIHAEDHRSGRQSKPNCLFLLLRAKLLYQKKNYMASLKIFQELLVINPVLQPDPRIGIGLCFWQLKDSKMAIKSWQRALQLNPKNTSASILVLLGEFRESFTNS
As to the kind of experiment: AUC; sedimentation velocity, 42,000 rpm, 4 °C, interference detection; 20 mM HEPES pH 7.5, 150 mM NaCl, 1 mM EDTA, 1 mM DTT. Particulars: both partners purified.

DEDLGMPVDLMKFPGLLNKLDSKLLYGFDNVKLDKDDRILLRDPR (domain or fragment, S. cerevisiae, UniProt P38351 59-103, looked up) [Paf1^(59–103)]: in assay [1], the binding result is on record as “binds”.

B1: Paf1^(34–103) (domain or fragment, S. cerevisiae, UniProt P38351 34-103, looked up)
chain: ETNADSSQLINSLYIKTNVTNLIQQDEDLGMPVDLMKFPGLLNKLDSKLLYGFDNVKLDKDDRILLRDPR
notes: In the crystal it stood as part of the single-chain fusion m36; source: E. coli BL21(DE3) Codon Plus, co-expressed with a Ctr9 fragment, purified (Ni-NTA, SEC)
The stoichiometry N is a count of units in the complex or per binding partner. As for B1, the “stoichiometry N” value in assay [2] came to 1.

The values above are taken from PMC6143631 (Nature Communications, 2018).
